The values below are quoted from earlier work in article PMC13051815.

The target of data set [1] is Bim BH3 peptide 86-111 (Homo sapiens) (UniProt O43521). Kind of data set: ITC.
Data set [2] shares this target. Kind of data set: fluorescence polarization. Background: Fluorescence polarisation rises when a labelled molecule tumbles more slowly, as on binding a larger partner.

Sequence of UniProt O43521 (O43521 86-111): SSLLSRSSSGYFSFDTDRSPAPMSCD

With Hsp70 NBD (from UniProt P0DMV8), the Kd (commonly the free concentration of one partner at which half of the binding sites on the other are occupied at equilibrium, for simple one-to-one binding) is 400 nM in data set [1] and > 30000 nM in data set [2].
